Results published in publication PMC9663308, “AAA+ protease-adaptor structures reveal altered conformations and ring specialization” (Nature Structural & Molecular Biology, 2022).
Ends that are not written are not given here.

B1: ClpS adaptor (natural protein, E. coli)
chain: MGKTNDWLDFDQLAEEKVRDALKPPSMYKVILVNDDYTPMEFVIDVLQKFFSYDVERATQLMLAVHYQGKAICGVFTAEVAETKVAMVNKYARENEHPLLCTLEKA
notes: ClpS, E. coli, ~10 kDa; N-terminal extension (NTE) res; 2–26 and core domain res; 27–106; The NTE (res. 2–26) and the core (res. 27–106) are both spoken of, so the whole protein is likely; also called native ClpS; source: E. coli BL21(DE3), purified as described for His6-SUMO-fusion proteins
B2: LLYVQRDSKEC-fluorescein N-degron synthetic peptide (peptide)
peptide: LLYVQRDSKEC-fluorescein
modifications: not fully specified (residue 11); printed as LLYVQRDSKEC-fluorescein
notes: synthetic N-degron peptide, molecular weight 1779.9 g/mol; also called fluorescein-labeled N-degron peptide; N-degron peptide; source: synthetic peptide (21st Century Biochemicals)
B3: ClpA (laboratory 'wild-type' ClpA carrying M169T), hexamer (enzyme, E. coli, UniProt P0ABH9 1-758, looked up)
chain: MLNQELELSLNMAFARAREHRHEFMTVEHLLLALLSNPSAREALEACSVDLVALRQELEAFIEQTTPVLPASEEERDTQPTLSFQRVLQRAVFHVQSSGRNEVTGANVLVAIFSEQESQAAYLLRKHEVSRLDVVNFISHGTRKDEPTQSSDPGSQPNSEEQAGGEERTENFTTNLNQLARVGGIDPLIGREKELERAIQVLCRRRKNNPLLVGESGVGKTAIAEGLAWRIVQGDVPEVMADCTIYSLDIGSLLAGTKYRGDFEKRFKALLKQLEQDTNSILFIDEIHTIIGAGAASGGQVDAANLIKPLLSSGKIRVIGSTTYQEFSNIFEKDRALARRFQKIDITEPSIEETVQIINGLKPKYEAHHDVRYTAKAVRAAVELAVKYINDRHLPDKAIDVIDEAGARARLMPVSKRKKTVNVADIESVVARIARIPEKSVSQSDRDTLKNLGDRLKMLVFGQDKAIEALTEAIKMARAGLGHEHKPVGSFLFAGPTGVGKTEVTVQLSKALGIELLRFDMSEYMERHTVSRLIGAPPGYVGFDQGGLLTDAVIKHPHAVLLLDEIEKAHPDVFNILLQVMDNGTLTDNNGRKADFRNVVLVMTTNAGVRETERKSIGLIHQDNSTDAMEEIKKIFTPEFRNRLDNIIWFDHLSTDVIHQVVDKFIVELQVQLDQKGVSLEVSQEARNWLAEKGYDRAMGARPMARVIQDNLKKPLANELLFGSLVDGGQVTVALDKEKNELTYGFQSAQKHKAEAAH
notes: ClpA, E. coli, AAA+ unfoldase with D1 and D2 modules; full-length with the M169T substitution that helps overexpression; also called ClpA6; WTClpA
B4: ClpP-His6, 14-mer (enzyme)
chain: not shown
notes: ClpP peptidase, E. coli; The atomic models hold one heptameric ClpP ring; also called ClpP14; ClpP7 ring; copies: 14

Assays:
[1] = target: B3; test: cryo-EM structure; ClpA6 (4 µM), ClpP14 (8 µM), ClpS (13 µM) and YLFVQELA-GFP (13 µM) mixed in assembly buffer (50 mM HEPES-KOH pH 7.5, 300 mM KCl, 5 mM MgCl2, 2 mM TCEP, 4% glycerol, 2 mM ATPγS), 5 min at 25 °C; largest complex from Superdex-200 taken for single-particle cryo-EM; details: both partners purified
[2] = target: B1; test: fluorescence polarisation; fluorescence anisotropy at equilibrium; ClpS alone (1.25–30 µM) titrated against 100 nM …-fluorescein; 30 °C, HO buffer, 2 mM ATPγS; details: both partners purified
[3] = target: B4; test: cryo-EM structure; ClpA6 (4 µM), ClpP14 (8 µM), ClpS (13 µM) and YLFVQELA-GFP (13 µM) mixed in assembly buffer (50 mM HEPES-KOH pH 7.5, 300 mM KCl, 5 mM MgCl2, 2 mM TCEP, 4% glycerol, 2 mM ATPγS), 5 min at 25 °C; largest complex from Superdex-200 taken for single-particle cryo-EM; details: both partners purified
[4] = target: the molecule itself; test: as above

Binder	binding result [1]	binding result [2]	stoichiometry N [3]	stoichiometry N [4]
B1	binds			
B2		binds		
B3			2 ClpA hexamers per ClpP 14-mer	6
B4	binds			14
